Data: US20220119534A1 (DRAGONFLY THERAPEUTICS, published 2022)
Several values for one entry are separate records, joined by “and”; a condition that tells them apart may be missing. Equal values may be shown once.

What was measured:
[1] = molecular target: T1, Human CD32b (FcγRIIb) (human, UniProt P31994 46-217, limits assumed, biotinylated); test: SPR 25C, average
T1 construct: Bought recombinant receptor; also called hFcγRIIb; CD32b (FcγR2b)
T1 sequence (looked up): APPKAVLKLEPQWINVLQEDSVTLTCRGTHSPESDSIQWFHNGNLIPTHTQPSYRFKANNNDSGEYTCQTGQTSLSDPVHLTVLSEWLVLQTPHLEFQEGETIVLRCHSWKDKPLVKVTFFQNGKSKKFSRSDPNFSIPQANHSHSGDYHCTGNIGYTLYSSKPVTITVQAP

[2] = molecular target: T2, mFc-hNKG2D (recombinant mFc-tagged human NKG2D dimer) (human, UniProt P26718 73-216); test: SPR; after low pH hold
T2 construct: extracellular domain; Made in house; not shown: mouse Fc tag
T2 sequence (looked up): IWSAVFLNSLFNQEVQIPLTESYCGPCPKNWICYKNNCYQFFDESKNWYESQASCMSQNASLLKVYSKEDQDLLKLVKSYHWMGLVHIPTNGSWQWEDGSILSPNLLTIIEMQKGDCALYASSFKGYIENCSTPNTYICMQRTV

[3] = molecular target: T3, Human CD16a V158 (FcγRIIIa V158) (human, UniProt P08637 17-208, biotinylated); test: SPR; after low pH hold
T3 construct: Bought recombinant receptor; also called hCD16aV; hFcγRIIIa V158
T3 sequence (P08637 17-208 F176V limits assumed): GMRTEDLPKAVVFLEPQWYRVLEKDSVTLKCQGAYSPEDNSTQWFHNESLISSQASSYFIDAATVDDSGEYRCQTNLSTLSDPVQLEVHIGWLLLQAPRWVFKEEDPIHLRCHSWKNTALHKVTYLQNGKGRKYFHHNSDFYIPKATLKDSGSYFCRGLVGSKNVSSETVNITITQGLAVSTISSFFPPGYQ

[4] = molecular target: T4, Human CLEC12A-His (recombinant, K244 WT) (human, UniProt Q5QGZ9 65-265); test: SPR, two-state fit; control sample
T4 construct: Made in house (Dragonfly Tx); also called hCLEC12A; hCLEC12A-His; not shown: His tag
T4 sequence: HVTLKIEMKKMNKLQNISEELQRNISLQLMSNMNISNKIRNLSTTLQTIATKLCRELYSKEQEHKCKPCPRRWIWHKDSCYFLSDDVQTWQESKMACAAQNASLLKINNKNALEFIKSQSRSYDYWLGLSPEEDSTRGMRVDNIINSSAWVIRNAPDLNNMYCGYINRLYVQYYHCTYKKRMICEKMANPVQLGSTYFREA

[5] = molecular target: T4, Human CLEC12A-His (recombinant, K244 WT); test: SPR, untreated CLEC12A, two-state fit
[6] = molecular target: T2, mFc-hNKG2D (recombinant mFc-tagged …); test: SPR; after pH 5.0, 40C, 2 wks (n = 2)
[7] = molecular target: T5, Human CD16a F158 (FcγRIIIa F158) (human, UniProt P08637 17-208, biotinylated); test: SPR 25C, receptor captured, steady-state fit
T5 construct: Bought recombinant receptor; also called hFcγRIIIa F158
T5 sequence (P08637 17-208 limits assumed): as the sequence (P08637 17-208 F176V limits assumed) above, with V160F counted along it

[8] = molecular target: T4, Human CLEC12A-His (recombinant, K244 WT); test: SPR, two-state fit (ka1); fully purified protein after low pH hold

Kd [1]: 6300 nM
Kd [2]: 941 nM
koff [2]: 0.15 s⁻¹
kon [2]: 159000 M⁻¹ s⁻¹
Kd [3]: 314 nM
koff [3]: 0.0274 s⁻¹
kon [3]: 87300 M⁻¹ s⁻¹
Kd [4]: 0.7 nM
Kd [5]: 0.6 nM
Kd [6]: 703 nM
koff [6]: 0.131 s⁻¹
kon [6]: 187000 M⁻¹ s⁻¹
Kd [7]: 1250 nM and 1280 nM and 1300 nM
kon [8]: 1.02e+07 M⁻¹ s⁻¹
B1: AB0089 TriNKET (bispecific antibody, human IgG1, kappa)
chain: QLQLQESGPGLVKPSETLSLTCTVSGFSLTNYGLHWIRQPPGKCLEWIGVIWVGGATDYNPSLKSRVTISVDTSKNQFSLKLSSVQAADTAVYYCAKGDYGDTLDYWGQGTLVTVSSGGGGSGGGGSGGGGSGGGGSDIQMTQSPSSLSASVGDRVTITCHASQNINFWLSWYQQKPGKAPKLLIYEASNLHTGVPSRFSGSGSGTDFTLTISSLQPEDFATYYCQQSHSYPLTFGCGTKLEIKGSDKTHTCPPCPAPELLGGPSVFLFPPKPKDTLMISRTPEVTCVVVDVSHEDPEVKFNWYVDGVEVHNAKTKPREEQYNSTYRVVSVLTVLHQDWLNGKEYKCKVSNKALPAPIEKTISKAKGQPREPRVYTLPPCRDELTKNQVSLTCLVKGFYPSDIAVEWESNGQPENNYKTTPPVLVSDGSFTLYSKLTVDKSRWQQGNVFSCSVMHEALHNHYTQKSLSLSPG
heavy: EVQLVESGGGLVKPGGSLRLSCAASGFTFSSYSMNWVRQAPGKGLEWVSSISSSSSYIYYADSVKGRFTISRDNAKNSLYLQMNSLRAEDTAVYYCARGAPIGAAAGWFDPWGQGTLVTVSSASTKGPSVFPLAPSSKSTSGGTAALGCLVKDYFPEPVTVSWNSGALTSGVHTFPAVLQSSGLYSLSSVVTVPSSSLGTQTYICNVNHKPSNTKVDKKVEPKSCDKTHTCPPCPAPELLGGPSVFLFPPKPKDTLMISRTPEVTCVVVDVSHEDPEVKFNWYVDGVEVHNAKTKPREEQYNSTYRVVSVLTVLHQDWLNGKEYKCKVSNKALPAPIEKTISKAKGQPREPQVCTLPPSRDELTENQVSLTCLVKGFYPSDIAVEWESNGQPENNYKTTPPVLDSDGSFFLYSWLTVDKSRWQQGNVFSCSVMHEALHNHYTQKSLSLSPG
light: DIQMTQSPSSVSASVGDRVTITCRASQGISSWLAWYQQKPGKAPKLLIYAASSLQSGVPSRFSGSGSGTDFTLTISSLQPEDFATYYCQQGVSFPRTFGGGTKVEIKRTVAAPSVFIFPPSDEQLKSGTASVVCLLNNFYPREAKVQWKVDNALQSGNSQESVTEQDSKDSTYSLSSTLTLSKADYEKHKVYACEVTHQGLSSPVTKSFNRGEC
notes: F3' format heterodimer of three chains; human IgG1 Fc with EW-RVT and Y349C/S354C mutations; also called AB0089 Lot AB0089-002; CLEC12A TriNKET AB0089
